This passage reports protein stability index results from the supplement of paper PMC10724198.

± gives the standard deviation of the averaged measurements.
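Further: PSI is a weighted mean of sequencing reads over stability bins, variants kept only with over 10 reads, mCherry proximal and sfGFP distal, peptide attached via GGGS linker.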

In this data set the test system is Saccharomyces cerevisiae. In words: protein stability index of tFT-peptide fusion (C-terminal peptide) (PSI (0-1 scale)); higher = more stable (slower turnover). Conditions: genetic background: wild type; temperature: 30 C.
The sequence KTKKIMPEQIKK gave a protein stability index of 0.616 ± 0.017.
The figure for KTKKKKEQTKKK is 0.808 ± 0.15.
The figure for KTKKKYENRKKK is 0.684 ± 0.0094; for KTKKNKQKSKKK it is 0.705 ± 0.034; for KTKKQEKNNKSK it is 0.685 ± 0.029.
The figure for KTLRRGYDWLQG is 0.681 ± 0.038; for KTLVRSFSIIEG it is 0.657 ± 0.026.
Turning to KTRHRQKDVTTH, the protein stability index was 0.713 ± 0.055.
To KTRKNNSKKNTK belongs 0.688 ± 0.019; to KTSYDQTLEMGL, 0.62 ± 0.04; to KTTRTGRHTAPN, 0.676 ± 0.028.
In the case of KTTVENEQRKEK, the protein stability index worked out at 0.698 ± 0.079.
The figure for KVDRDRTGIHWS is 0.671 ± 0.061.
To KVHQHPFLHALS belongs 0.695 ± 0.012; to KVIKEQNKKIDR, 0.641 ± 0.026.
The figure for KVNWVKAAKKNA is 0.626 ± 0.019.
For the sequence KVSTWKISRISG, the protein stability index is 0.55 ± 0.026.
To KWEGKKINKKRE belongs 0.699 ± 0.077; to KWGVWLWVGGGG, 0.763 ± 0.056.
The figure for KYEKILLTVAPE is 0.672 ± 0.019; for KYLPSVVYIYRL it is 0.531 ± 0.023.
The figure for KYMENQLSYDAD is 0.646 ± 0.051; for LACGWCVAVYRG it is 0.644 ± 0.049.
For LAFFAPCLLPPL, the protein stability index turned out to be 0.557 ± 0.048.
The figure for LAFFPPPLPPSS is 0.698 ± 0.064.
For LAGGGARWGVVR, the protein stability index amounted to 0.659 ± 0.033.
To LAGISSNRHLRR belongs 0.753 ± 0.067; to LAGRSVVLLWMG, 0.602 ± 0.021.
In turn, LALLGPCPPPIH gave a protein stability index of 0.741 ± 0.083.
To LAPLTLLSPLPR belongs 0.677 ± 0.034; to LAPNPGVLFCGI, 0.656 ± 0.044; to LAPPPRPPLAPP, 0.637 ± 0.03.
The figure for LAPRPPAPTPTL is 0.603 ± 0.053; for LAPSWVGYVSGH it is 0.7 ± 0.069; for LARLTRHSKLGL it is 0.712 ± 0.066.
The figure for LASVYLLLRFSE is 0.5266 ± 0.0012; for LAVVGGVEKKYH it is 0.676 ± 0.055; for LAVVSTRCRLEL it is 0.694 ± 0.062.
The sequence LCDACLSLVFLW gave a protein stability index of 0.629 ± 0.031.
To LCGSSVSHLVLP belongs 0.7125 ± 0.0054; to LCPSFAIALSSD, 0.692 ± 0.013.
To LCRCVFFGLWGV belongs 0.621 ± 0.031; to LCSLSLCSYSIF, 0.6 ± 0.0053; to LCTYVMFACFFF, 0.641 ± 0.1.
To LCYTDMIRGCVF belongs 0.65 ± 0.021; to LDELTRRAEGCG, 0.596 ± 0.008.
For LDGGYGRHGVGD, the protein stability index is 0.6765 ± 0.00099.
To LDIGVADAQRML belongs 0.701 ± 0.14; to LEGTGDRFALCG, 0.659 ± 0.023.
To LEIRKKGNKIRE belongs 0.6 ± 0.041; to LEKYIKNYINKR, 0.615 ± 0.016; to LERTTSNKYEER, 0.7234 ± 0.0061.
To LESARDICAFAD belongs 0.6754 ± 0.005; to LESSAKSRTMVL, 0.721 ± 0.014.
LEVFSGNQSVLH gave a protein stability index of 0.645 ± 0.094.
To LFAHSLRLSFAC belongs 0.7054 ± 0.0031; to LFALLSGIDRCL, 0.634 ± 0.012.
In turn, LFAPPACLPSPA returned a protein stability index of 0.64 ± 0.014.
To LFFGSNLFLLAL belongs 0.595 ± 0.043; to LFFNLLLFFSFI, 0.488 ± 0.018.
The figure for LFFSLSLVVPTG is 0.633 ± 0.095; for LFGAVGGGVEVG it is 0.668 ± 0.12.
The figure for LFGVRFTLGYLF is 0.554 ± 0.016; for LFLGSFSRSLWP it is 0.755 ± 0.015; for LFLLYPRLTLPL it is 0.621 ± 0.023.
Sequence LFLPLPGPLRSS displayed a protein stability index of 0.79 ± 0.13.
To LFPAAPAPPPPP belongs 0.658 ± 0.028; to LFPAIWPRVLSW, 0.566 ± 0.02.
The figure for LFPRCYFARIVV is 0.484 ± 0.033; for LFSSQAGGRLES it is 0.67 ± 0.019; for LFTFEADKCDLT it is 0.774 ± 0.092.
To LFTSCPPDVRSL belongs 0.667 ± 0.012; to LFVAFGAAESFE, 0.67 ± 0.098.
Turning to LGAPPPLGLSPS, the protein stability index was 0.733 ± 0.019.
LGASPTWGPARS gave a protein stability index of 0.656 ± 0.016.
To LGCVDRMGRVFG belongs 0.704 ± 0.079; to LGEHHKEQEKNV, 0.654 ± 0.023; to LGEYNRKKKPRI, 0.6446 ± 0.0034.
The figure for LGFDRGGGVAGM is 0.674 ± 0.034.
The figure for LGGERERGRKRG is 0.672 ± 0.048; for LGGGEGKRVCEG it is 0.668 ± 0.017.
With LGGGGVGVGSLV, the protein stability index was determined as 0.679 ± 0.014.
To LGGGGWGGACGE belongs 0.66 ± 0.02; to LGGGNVGHSRIW, 0.623 ± 0.073.
The figure for LGGICPLYDLVF is 0.667 ± 0.076; for LGGLKCGRLADS it is 0.656 ± 0.041.
The figure for LGGLRRGSGREG is 0.678 ± 0.015; for LGGLYGTAMSCT it is 0.683 ± 0.023.
On to LGGRWVLGVRGV, for which the protein stability index was found to be 0.694 ± 0.029.
LGGSNRPCVRSI had a protein stability index of 0.697 ± 0.011.
To LGGSVAIWSWNP belongs 0.763 ± 0.12; to LGGWAGLRCGGF, 0.704 ± 0.026.
Regarding LGILVFRGASFL, the protein stability index came out at 0.7351 ± 0.007.
The figure for LGLCQVLFSFRV is 0.56816 ± 0.00044.
To LGLEALRETSQP belongs 0.6448 ± 0.005.
The figure for LGLSDPERLFVI is 0.664 ± 0.025; for LGMEPPWIYSCQ it is 0.6851 ± 0.0019.
On to LGRGGGGPLSGG, for which the protein stability index was 0.717 ± 0.041.
As for LGRLFPTSLPPR, the protein stability index was determined as 0.739 ± 0.17.
The figure for LGRLGAFITQPA is 0.671 ± 0.059; for LGRMCSRITVGV it is 0.543 ± 0.026.
The figure for LGRPLLYALFFP is 0.724 ± 0.048; for LGRRGLSMCGCV it is 0.634 ± 0.018.
The figure for LGRVLSFGHAFV is 0.698 ± 0.021; for LGSASRQLARPR it is 0.66 ± 0.12.
Sequence LGSVVADGPHKL gave a protein stability index of 0.625 ± 0.0097.
The figure for LGVAMSKCLEFR is 0.684 ± 0.0083; for LGVFVAFGGFGV it is 0.605 ± 0.048; for LGVGGRGVVPGA it is 0.7 ± 0.031.
The figure for LGWGWVWSWGRG is 0.728 ± 0.052; for LHISYPVPPLRM it is 0.633 ± 0.11.
To LHNQTLLLSEDD belongs 0.652 ± 0.037.
LIALLETRTWRT had a protein stability index of 0.676 ± 0.015.
To LIAVASSGWKQS belongs 0.7145 ± 0.0023; to LICQNPVADPRT, 0.711 ± 0.042; to LIFKLQLPSPWL, 0.643 ± 0.042.
